Our source for the protein production values is a protein production outcome set (Wang et al. 2014).

The series is described as follows: label from the status in PepcDB records.

For “MMNSRQRYKAFISYSHHDRKAAEWLHRSLESYRPPAGLRAGLGEASGNALKPIFRDRDELSAAADLSEAIRDALDRSDTLIILCSSHAATSRWVDKEVAHFLTLRGADHMISVIAPGAPEGLPLMELLPPALRAALPEGVEPLAVDLRQDADGRRLAKLKIAARLLGVSLDRLVQRDARRRLRLMTAVSGVALAITVGMGAMTVVTLKSRQIAREQRDETEALVAYMLGDLREQLEPVGRLDLLDGVSAKVLAYYAKAQSDQLDDKALAQRAKAQTLLGTIREQRGDLEGAQDAFAQAAATTHALVERSPNDGDRVFDEAQNVFWLAYMGWRRGEIAQAERGFKRYAELAQRLVVIDPNRADWRIEVAYAKNNLGTLLFEEGRAGEALASFRAAFSIFEAERLRAPTDKQRLMDSANARAWVADCLLLMAKPREAFTERKAAAELLAKGEAAFPADQRLAAKSVATQLALARLELDLGRVAEARSRSKAAMNRLRELAALDPTNTRWREYVLIGELDFIDFAIWSGQPVQARSLHAAALANLARTRKGQEGGSWRPDLDGRLARQAVVLALSVGDVATAKRAAKSLVEALETSKVDRETAFGRTDLLGLAQLVDGKPSAAIKALSPRRNALPPASLDVLARAYAAVGERETAARIVRDLKQEGYAHPGFVAFWRESPAGGPPQSGVLK”, the protein production result is “failed”.
Then “MMNTTTLDRYFDLFDASRTDEKAFDDLISLFSDEITFVLNGQEQHGIDAWKQFVRMVFTANQDIKHMYAGWVPSETGDTMETRWAVCGKSADGSVFTQDGTDIARLNADGKIVYLANVPDDTAMFNQYND”, with “not failed”; and “MMNYKQLLIDNFAFKTSYVAQFVPGMSIKETKDYIAVDCGLPADTFNIITLLNNNLTEGVEKLYKEVEYYNQKKFPMSVWLWDEEQERDIKSELNKIGLKEAEQNIAMVADLKTISPTINMPVSFTIQQASSPGLIKKFGETLANLFGTSEEAIHVQAFYNQISNLDLWNSENMKLFLGFYEGEIVTVGSLICSKDSIGIYDIATKEEMRGRGFGSTMFNFLLQEAQKFKNTYCVLQASTDGINIYKKSGFQAIGKMTVLENRHVIE”, with “failed”.
To “MMPLSTPDFASIRDTLLRDLQNLRADADIAPDSDYFVRASSVASAVEGLYQHQSWIARQIFPDTADSEYLEQHARLRGIVRKPAAAASGTLRISGNAGAVVSGSLQLRIGEQLYATPAANPDGSPYAARLDANGQAELPIFASQAGAAGNQPESLPVELMQAPSGVSAKALLLSMRNGVDVEDDAALLDRLLELIRRPPAGGNRHDYRRWAMEVKGVSAAYVYPLRRGLGTVDVVITANGDLPSQEILNNVQAHIEDLRPVTAKSCLVLAPTPRPVDIDVALNLGGANLDAFTPLLQQTLQAYFAGLAPGERLVKSRIEALISDLPGVQDRQLNSPAGNVDPVSDPTKVEWLRLGKLTVGLLKLEHHHHHH” belongs “not failed”.
Then “MMPNRNTNMLLAYKRLPNWTANSIPETLLNPHNTKVGTWEQLTVLSGKLDVYFFDKDDHVLEKLTFDKDSQMPFIQPQVCYKIEPASNDLECHLTLYCQKGDYFNKKYGMTKTHSEVLFSAPYLKENSKILDLGSGQGRNSLYLTMLGHDVTSVDTNEQSLIHLKNIANEENLPSKINWYDINTANLQETYDFILSTVVFMFLNRPVVPDIIKDMQKHTAIGGYNLIVCAMDTKSYPCPIPFPFTFKKGELKDYYKEWYLIKYNEDLGQLHKTDANGNRLQMQFATLLAKKVK”, with “failed”; and “MMPSSSTPNAFQYAWRNPWVRLVVFLGLFYLLYLFIGQITTVLVDFAVAFLIAYLANPLLGWLERGRVRRGLGVFFVLLLFLGLLALAGALVVTVGGQFVQLFQNLPAQIDNLNRILDGAVQWLSGRGIPGLADAQTRMTEALRDWIANIGNNIVPILQNALSSTGTLFNRLISIGGVIGQVLLILLLSVYLMLDYARVNASLLRAFPRPWQPKVLEFSDLIGTAVGGYVRGQLLIAAFIGIFVWLGLTIVGIPSAAAIGFLAGAFNIVPYLGPIIGATPALLLALTLPNAGFKMILVVVVFVLANQIEGNFLSPYILSKTTDLHPVTVLLAILVGVALMGFAGALLAVPLVALGKLMLEKYYYPSRVYSQGP”, with “failed”.
Turning to “MMPYITDIAALEHVGVAAAWTEKVPAFRVLREKRMLDFRAPITVITGENGVGKSTLLEAIAINAGFDTAGGEHTGKFKPSDNPLQTVAKAHKGKEPMRGYFLRAETHFNVASGYRDEAPGWVNLHHMSHGESVMHIVQNAFVGKGLYLMDEPEAGLSFIRQMAILAELNFLAESGAQIIIVTHSPVLMAIPGAEIWEFSASGELHRGFDFEVTTAFRALRDFFEDPEEIAEYMMDVMMDNKGESLEHHHHHH”, the protein production entry was “failed”.
Then “MMQDCEKLLDEPGRLAAVRRYAVLDTAPEEPFDKLTRLVCNVLEVPYAAVTLIDADRQWFKSLVGLSGSEGPRHESFCTHTIKTRDPMIVPDATLDPRFRDSPLVTGAAGIRSYLGVPLETPDGYNLGALCAVDTAPRTFSTSQIEIMKSFASLVLDELELRQIALSDALTGAMTRRGWLAAVEKEMARGARQGTQAAIVLFDVDHFKAINDTHGHAVGDAVLQALTRRCLLHLGPADALGRIGGEEFAVLVPDAGLPEAMELAERLRRSFSDAPIEVAGQALRVTASFGVQGLDGDTGNAGSWLAAADRRLYEAKAAGRNRCHGG”, with “failed”; and “MMQHCAPTPRLARFLFVEYRMMRQYELVERVQKYKPDANEALLNKAYVYAMQKHGQQKRANGDPYISHPLEVAAILTEMHLDESTIAVALLHDTIEDTTATRAEIDELFGEDIGRLVEGLTKLKKLDLVTRKAKQAENLRKLLLAISDDVRVLLVKLADRLHNMRTMEYMPADKRSRISEETMEIYAPLAGRMGMQDMRDELEDLSFRYLNPEAYETVTNRLLELETRNEGLIKKIEDELRELLVANGLLGTHVKGRQKKPYSVFRKMQSKSLSFEQLSDVYGFRILVDDIPGCYRALGIVHTRWRVVPGRFKDYISTPKQNDYRSIHTTIVGPSRQRIELQIRTKRMHEIAEFGIAAHALYKDGENGEGDLLSKESNAYSWLRHTIESLAEGDSPEEFLEHTKLELFQDQVFCFTPKGKLIALPRGATPIDFAYAVHTNIGDTTVGAKINGRIMPLVTRLNNGDEVEIIRSGVQVPPAAWEEVVVTGKARSAIRRATRMAIRKQYSGLGYRILERTFERAGKAFSREALKPVLHRLAQKDVEDAIAAVGRGEVSSLDVLRAVFPDYQDERVTVKMTGDDGWFNMRSASGMVFKIPGKSRSVLEDDGAAEMLDGPDPLPIRGLSGNVDVHFSAAGAVPGDRIVGIMEKGKGITIYPIQAPALQRFDDEPERWIDVRWDLDEANKSRFMARVMINALNEPGTLASVAQSIATLDVNIRGLNMVRIGTDFSELALDVEVWDLRQLNQLLSQLKDLDCVSTVARAFD”, with “failed”.
Then “MMQIDSIEIGGKVYQFFKSDLGNAPLLFIKGSKGYAMCGYLNMETSNKVGDIAVRVMGVKTLDDMLSAKVVEASQEAQKVGINPGDVLRNVIDKL”, with “not failed”; and “MMQSRRVQESLVGLVILAGLATLGVGLLWLRGNLAGANSYTLEVELDTAPGLAVGTQVRYRGVQVGRVTAIGFDANGVQVSVRINNVLIPRRAVPEIRQSGFIGQAFLDFTPKERVPEIPEGVTAFAPKCQPELVYCNGDRVTGVRTASLEDLVRAATRFTTALEESGLINNANTLILGATRIVNRADQSLTKVTTALDSFNALSNQARAELRNFGIAAQAVTRAANQISEIVEVNRNTINSSLRNIDSAARELRTTLKALHPLTNQLEQGELLANLDALIKNGAEAAANLNKVSGALSSPLIMLSIAQTLDAARATFINAQKLTNDLLKLTSDPSFQSDLRRLIQILRRLLASSQDLEQQFLALHATSLGEAHEPMPAISAPTAAAKPTKEEEPEP”, with “failed”.
Then “MMREFEIERQFNIKIEYIKPNKGVYFVKTNKGNKCLKKINYGIQKLLFVYAAKEHLINNGFKYVDKYCLNTEGNPYALVNEDIYTLSEWIEGRECSFYDTEDLVKASKTLAKMHECSKGYEPPENSKLKSDLGRWPHLIEKRVKALDKMRDMARKKGNKKDFDMNYIKNVDFFKEQGIKSMNVLKNSKYESLCAVAEEEKGFCHHDYTYHNIIINNEDNVYVIDFDYCKRELRAYDISNFMIKVLKRSNWSMKTAELILDSYSSISKLDDDEYGVIYAFLIFPQRFWRLANRYYYNEVNWGQNTFNNKMEELIEERERYIKFIEDFREAYNLQ”, with “failed”; and “MMRFLFVDRIVQLSPGEWIKGIKHVTRDDAYLTTDDHGRLCFMPSLIGETLGQLAAWNVMQHNHFTARPVAGVVSSARLYRPAYVGETILLESNIDSLDEKAVQYHSIAKVGNDIIFTIDGALGPMLPMTEFISTEVIRQQFAEIYRPGDWSSVLALSSPVLIEENCSDCGMINSSMQFDRILASQPGISLIAEKRITRSASYFPDHFPKRPVLPMTVLLECKLNLAKEFIARAKYDRAYRISELRKIKMNEFVHPGDVVVCQVKVKQQMDDELILSYRCEVDGKRVCVVDIVLIPKGK”, with “failed”.
For the sequence “MMRLANGIVLDKDTTFGELKFSALRREVRIQNEDGSVSDEIKERTYDLKSKGQGRMIQVSIPASVPLKEFDYNARVELINPIADTVATATYQGADVDWYIKADDIVLTKDSSSFKAQPQAKKEPTQDKLEHHHHHH”, the protein production result was “not failed”.
Then “MMRPKVYFKTFGCRTNLFDTQIMIKNLQNFELTEIEESADIVVVNSCTVTNGADSGVRSYLHRLKSEGKRVYLTGCGVLTRGEEIFTQELAFGVFGHSYKEQIDSLLSQKTRFSFKGDLEHIDSTVITEFIGKSRAFVKVQEGCDFSCSYCIIPSVRGKARSLPVDRIVSQVEILAQHGFGEFVLTGTNVGSYGKESGLNVAKLLKALSQIKGVKRLRLGSLEPSQIDAEFMELLEEPFMARHLHIALQHTSPKMLQIMNRRNEAQGDLALFERLAQKGYALGTDFILGHPGESEEVWKEAWERFVAFPLTHLHAFVYSPREGTPSSLMKDRISGNIAKERMRILQERVRENNHHFRQKGEKLWVLIESEREGGLYQGLDQFFNRIEIRSSDSLAGRWLEVSDYEAESEINRAELL”, with “failed”; and “MMRVKFNGKELDTDFKTSLEFFENISKNENDVWIINGFATKENIALNENDELFCIEKNTLPPKDALDAMMRARHTPKLHDKLKNGRVAVCGLGGLGSHIAINLARSGVGYLKLIDFDVIEPSNLNRQAYRVSDLGKFKTEALKEQISEINPYISVEICTLKIDEDNLESLFKDIDIVCEAFDSAIAKAMIAQNFHRFYKDGILICASGLAGYGDSNSIQTRKIAKNFYVCGDLVNGAKLGNGLMAPRVNICAGHQSNLVLELLANKELEHHHHHH”, with “not failed”.
As to “MMRYKEEKEVKKEAFRKYLESSGVLDSLTKVLVSLYEQNDKPSSALEFIQQKLGGPSVSDYEKLQAEKSDLQIKYNELLAKHQETLRELNGVKSLHSRNSSKDDADRETLEAEHTTLVTPHH”, the protein production result is “failed”.
Then “MMSGLVYRKRRRQNMTALERSWFEEAQQSMHGWDFSHLAGRWQTADLPWDYAALVREHLSADDRWLDIDTGGGELMGRFNPQPALTAVTEGWQPNIELLKQTVVKKGITLYPDAAEQLTAVPNSTFDIVTNSHGAMPVKRIAEVLKPGGRFVTQQVGATNNYALSRFFDEHYETAYPDNQLLTVMAQMQAAGFEILRAEQAYAALSFTDVGAIVYYATVIPWEFPHFDVARMLPKLHQLQSLLAINGRVTTFEDRFMIIARKLARRD”, with “failed”; and “MMSKVVSKMKSFLGFDEFEDEDEVMEEEEVMEEEESFAPVLSSKKNGKVVNIHTANTAKLMITKPLVYDDATEICTALKNRKIVVINTTSLELRTAQRLIDFVGGACYALCGELQEVEKGVFIVSPSNVEVSNELKSELSNKGMFNWASKLEHHHHHH”, with “not failed”.
